Measured values as given in US20130045922A1 (CHILDREN S MEDICAL CENTER, published 2013).

Target: I^125-VEGF
Experiment: cell-based or functional assay

Chain of I^125-VEGF (P15692 whole entry): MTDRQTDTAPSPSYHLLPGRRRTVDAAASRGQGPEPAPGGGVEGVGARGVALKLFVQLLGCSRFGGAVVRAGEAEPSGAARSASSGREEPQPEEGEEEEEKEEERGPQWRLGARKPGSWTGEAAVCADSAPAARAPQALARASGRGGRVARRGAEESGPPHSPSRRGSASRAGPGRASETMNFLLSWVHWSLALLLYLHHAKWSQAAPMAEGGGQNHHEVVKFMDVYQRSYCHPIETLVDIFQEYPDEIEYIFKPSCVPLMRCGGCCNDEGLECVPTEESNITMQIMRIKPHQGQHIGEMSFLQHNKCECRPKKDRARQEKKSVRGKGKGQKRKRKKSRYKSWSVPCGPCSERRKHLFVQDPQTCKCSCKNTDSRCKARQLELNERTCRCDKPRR

ability of endothelial cells to bind VEGF in the presence of peptide: > 2 fold over original #237
Binder: DRVQAQTTTVVA [Ala-5 (DRVQAQTTTVVA)]
